“Also recorded” adds a separate entry of the source.
Legend:
[1] = tested on: primary bronchial epithelial cells from asthmatic subjects; test: Proliferation assay (methylene blue), primary bronchial epithelial cell cultures from asthmatic subjects; format: cell-based, human; details: 1.7 nM EGF for 24 hours vs serum free medium, FIG. 2b
Description: (§1) Bronchial brushings were taken from non-atopic, non-asthmatic control subjects and asthmatic subjects. Volunteers were characterised according to symptoms, pulmonary function and medication. Assessment of asthma severity was in accordance with the GINA guidelines on the diagnosis and management of asthma (Bousquet (2000) Global initiative for asthma (GINA) and its objectives.
(§2) Bronchial brushings were obtained by bronchoscopy using a fibreoptic bronchoscope (Olympus FB-20D, Tokyo, Japan) in accordance with standard published guidelines (Hurd S. Z. (1991) J. Allergy Clin. Immunol. 88, 808-814). Bronchial epithelial cells were obtained using a standard sterile single-sheathed nylon cytology brush (Olympus BC 9C-26101; Tokyo, Japan). […] Epithelial cell purity was assessed by performing differential cell counts on cytospins of the harvested cell suspension. […]
(§3) Cells were prepared in 24 well trays at a seeding density of a minimum of 4×10^4 cells/ml primary BECs. […] Absorbance of the eluant was determined using a Multiskan ascent plate reader after a 1:10 dilution with 1:1 ethanol:0.1% HCl to provide an absorbance within the linear range of the plate reader. Absorbance was read using a 630 nm filter and each sample was tested in duplicate. A standard curve was generated by direct cell counting to enable cell number to be related to methylene blue readings. […]

[2] = tested on: primary bronchial epithelial cells from normal subjects; test: Proliferation assay (methylene blue), primary bronchial epithelial cell cultures from normal controls; format: cell-based, human; details: 1.7 nM EGF for 24 hours vs serum free medium, FIG. 2a
Description: as §1, §2, §3

B1: EGF: epithelial growth factor; wild-type mouse EGF produced in Pischia pastoris (protein)
chain: WQTGNCQPGPLERSERSGTCAGPAPFLVFSQGKSISRIDPDGTNHQQLVVDAGISADMDIHYKKERLYWVDVERQVLLRVFLNGTGLEKVCNVERKVSGLAIDWIDDEVLWVDQQNGVITVTDMTGKNSRVLLSSLKHPSNIAVDPIERLMFWSSEVTGSLHRAHLKGVDVKTLLETGGISVLTLDVLDKRLFWVQDSGEGSHAYIHSCDYEGGSVRLIRHQARHSLSSMAFFGDRIFYSVLKSKAIWIANKHTGKDTVRINLHPSFVTPGKLMVVHPRAQPRTEDAAKDPDPELLKQRGRPCRFGLCERDPKSHSSACAEGYTLSRDRKYCEDVNECATQNHGCTLGCENTPGSYHCTCPTGFVLLPDGKQCHELVSCPGNVSKCSHGCVLTSDGPRCICPAGSVLGRDGKTCTGCSSPDNGGCSQICLPLRPGSWECDCFPGYDLQSDRKSCAASGPQPLLLFANSQDIRHMHFDGTDYKVLLSRQMGMVFALDYDPVESKIYFAQTALKWIERANMDGSQRERLITEGVDTLEGLALDWIGRRIYWTDSGKSVVGGSDLSGKHHRIIIQERISRPRGIAVHPRARRLFWTDVGMSPRIESASLQGSDRVLIASSNLLEPSGITIDYLTDTLYWCDTKRSVIEMANLDGSKRRRLIQNDVGHPFSLAVFEDHLWVSDWAIPSVIRVNKRTGQNRVRLQGSMLKPSSLVVVHPLAKPGADPCLYRNGGCEHICQESLGTARCLCREGFVKAWDGKMCLPQDYPILSGENADLSKEVTSLSNSTQAEVPDDDGTESSTLVAEIMVSGMNYEDDCGPGGCGSHARCVSDGETAECQCLKGFARDGNLCSDIDECVLARSDCPSTSSRCINTEGGYVCRCSEGYEGDGISCFDIDECQRGAHNCGENAACTNTEGGYNCTCAGRPSSPGLSCPDSTAPSLLGEDGHHLDRNSYPGCPSSYDGYCLNGGVCMHIESLDSYTCNCVIGYSGDRCQTRDLRWWELRHAGYGQKHDIMVVAVCMVALVLLLVLGMWGTYYYRTRKQLSNPPKNPCDEPSGSVSSSGPNSSSGAAVASCPQPWFVVLEKHQDPKNGSLPADGTNGAVVDAGLSPSLQLGSVHLTSWRQKPHIDGMGTGQSCWIPPSSDRGPQEIEGNSHLPSYRPVGPEKLHSLQSANGSCHERAPDLPRQTEPVQ
effect on cell number (proliferation) [1]: small but significant increase in cell number; also recorded: require exogenous EGF for maximal proliferation
effect on cell number (proliferation) [2]: no effect on cell number; also recorded: unaffected
